Patent publication US20220025045A1
pKd: −log10 of the molar value.

Columns and labels:
[1] = biological target: human ILT-2 (LILRB1), complete form expressed at the cell surface (human) (UniProt Q8NHL6); test: flow cytometry, CHO-ILT2 cells
[2] = biological target: recombinant human ILT2 protein (analyte in SPR and Octet) (human) (UniProt Q8NHL6); test: BLI (Octet RED96), mAb captured on AMC biosensor, 1:1 model
[3] = biological target: ILT2 on primary human NK cells (human) (UniProt Q8NHL6); test: flow cytometry, primary NK cells
human FcRn (human) = human FcRn (human) (UniProt P55899); test: SPR, antibody immobilized, soluble FcR
[4] = biological target: recombinant human CD16a(V) (human) (UniProt P08637); test: SPR, antibody immobilized, soluble FcR, steady state
[5] = biological target: recombinant human CD16b (human) (UniProt O75015); test: as above
[6] = biological target: recombinant human CD32a (human) (UniProt P12318); test: as above
[7] = biological target: recombinant human CD16a(F) (human) (UniProt P08637); test: as above
[8] = biological target: recombinant human CD32b (human) (UniProt P31994); test: as above
[9] = biological target: recombinant human CD64 (human) (UniProt P12314); test: SPR, antibody immobilized, soluble CD64, 1:1 kinetic model
Chain of recombinant human CD64 (human) (P12314 16-288 limits assumed): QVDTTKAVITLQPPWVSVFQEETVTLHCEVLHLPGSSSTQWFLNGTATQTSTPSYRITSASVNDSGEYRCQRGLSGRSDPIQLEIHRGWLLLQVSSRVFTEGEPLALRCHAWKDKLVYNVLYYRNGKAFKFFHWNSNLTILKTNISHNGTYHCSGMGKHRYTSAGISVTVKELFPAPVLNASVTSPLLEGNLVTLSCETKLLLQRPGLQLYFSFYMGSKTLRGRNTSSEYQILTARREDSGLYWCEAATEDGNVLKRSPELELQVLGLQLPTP

Chain of recombinant human CD16a(V) (human) (P08637 17-208 F176V limits assumed): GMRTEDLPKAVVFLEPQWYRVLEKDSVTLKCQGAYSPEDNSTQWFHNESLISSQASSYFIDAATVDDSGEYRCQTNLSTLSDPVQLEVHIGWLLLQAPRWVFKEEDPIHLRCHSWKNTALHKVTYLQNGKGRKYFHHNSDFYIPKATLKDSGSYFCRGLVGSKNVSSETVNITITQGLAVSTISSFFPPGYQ
Chain of recombinant human ILT2 protein (analyte in SPR and Octet) (human) (Q8NHL6 24-458 limits assumed): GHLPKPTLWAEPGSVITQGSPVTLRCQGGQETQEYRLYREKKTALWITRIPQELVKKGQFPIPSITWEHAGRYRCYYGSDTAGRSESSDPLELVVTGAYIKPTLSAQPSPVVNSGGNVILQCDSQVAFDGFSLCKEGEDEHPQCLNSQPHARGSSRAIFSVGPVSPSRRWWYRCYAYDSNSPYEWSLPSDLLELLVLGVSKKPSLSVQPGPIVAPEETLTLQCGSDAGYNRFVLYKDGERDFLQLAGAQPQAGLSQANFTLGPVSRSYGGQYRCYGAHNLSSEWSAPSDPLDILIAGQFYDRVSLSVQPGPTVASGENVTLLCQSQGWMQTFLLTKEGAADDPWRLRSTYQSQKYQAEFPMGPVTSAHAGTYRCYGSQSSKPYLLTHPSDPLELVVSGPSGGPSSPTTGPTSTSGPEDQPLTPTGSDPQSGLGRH
Chain of human FcRn (human) (P55899 24-297 limits assumed, chain 1 of 2): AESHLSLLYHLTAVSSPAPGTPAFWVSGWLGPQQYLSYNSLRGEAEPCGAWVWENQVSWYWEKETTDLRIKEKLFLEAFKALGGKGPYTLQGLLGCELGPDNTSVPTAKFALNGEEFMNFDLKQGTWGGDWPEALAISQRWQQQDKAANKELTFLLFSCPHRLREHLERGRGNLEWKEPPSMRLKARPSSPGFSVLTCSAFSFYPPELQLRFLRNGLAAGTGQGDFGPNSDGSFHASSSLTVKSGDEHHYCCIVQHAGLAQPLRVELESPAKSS
Chain of human FcRn (human) (chain, as listed by the source limits assumed, chain 2 of 2): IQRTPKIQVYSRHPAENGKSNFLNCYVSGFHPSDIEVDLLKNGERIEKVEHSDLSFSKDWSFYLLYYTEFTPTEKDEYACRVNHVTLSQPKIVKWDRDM
Chain of recombinant human CD32a (human) (P12318 36-218): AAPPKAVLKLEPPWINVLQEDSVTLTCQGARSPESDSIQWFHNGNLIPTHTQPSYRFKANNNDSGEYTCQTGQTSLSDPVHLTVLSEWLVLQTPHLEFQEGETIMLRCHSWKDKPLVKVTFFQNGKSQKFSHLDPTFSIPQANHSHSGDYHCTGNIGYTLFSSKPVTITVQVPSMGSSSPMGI
Chain of recombinant human CD32b (human) (P31994 46-217): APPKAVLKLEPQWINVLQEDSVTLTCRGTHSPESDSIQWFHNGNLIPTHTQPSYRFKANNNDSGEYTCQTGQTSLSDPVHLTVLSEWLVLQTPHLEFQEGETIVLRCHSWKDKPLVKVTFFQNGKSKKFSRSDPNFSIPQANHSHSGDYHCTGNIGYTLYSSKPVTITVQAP
Chain of recombinant human CD16a(F) (human) (P08637 17-208 limits assumed): as the sequence (P08637 17-208 F176V limits assumed) above, with V160F counted along it
Chain of recombinant human CD16b (human) (O75015 17-200 limits assumed): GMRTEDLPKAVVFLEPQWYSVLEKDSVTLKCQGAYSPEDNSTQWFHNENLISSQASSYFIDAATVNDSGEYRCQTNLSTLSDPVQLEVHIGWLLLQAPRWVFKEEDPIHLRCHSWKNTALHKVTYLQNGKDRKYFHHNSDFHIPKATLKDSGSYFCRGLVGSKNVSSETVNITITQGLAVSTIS
Chain of ILT2 on primary human NK cells (human) (Q8NHL6 24-650): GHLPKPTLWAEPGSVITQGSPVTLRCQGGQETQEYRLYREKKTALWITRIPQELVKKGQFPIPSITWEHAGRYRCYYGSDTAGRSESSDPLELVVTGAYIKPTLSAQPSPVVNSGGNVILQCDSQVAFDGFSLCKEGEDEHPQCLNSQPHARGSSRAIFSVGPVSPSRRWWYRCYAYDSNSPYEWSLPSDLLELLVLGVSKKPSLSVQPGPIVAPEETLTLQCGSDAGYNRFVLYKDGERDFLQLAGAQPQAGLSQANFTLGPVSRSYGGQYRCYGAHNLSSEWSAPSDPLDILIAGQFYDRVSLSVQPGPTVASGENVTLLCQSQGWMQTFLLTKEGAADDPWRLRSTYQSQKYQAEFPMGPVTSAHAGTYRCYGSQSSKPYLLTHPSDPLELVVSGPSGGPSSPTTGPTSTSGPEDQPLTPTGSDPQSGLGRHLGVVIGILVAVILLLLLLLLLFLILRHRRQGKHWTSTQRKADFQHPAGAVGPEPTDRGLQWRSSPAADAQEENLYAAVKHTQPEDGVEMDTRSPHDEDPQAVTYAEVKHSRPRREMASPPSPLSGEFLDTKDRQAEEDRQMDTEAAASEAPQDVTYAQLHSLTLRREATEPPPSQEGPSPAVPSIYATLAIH
Chain of human ILT-2 (LILRB1), complete form expressed at the cell surface (human) (Q8NHL6 24-650): as above

Substance: HP-F1 (antibody)
- EC50 [1]: 0.56 µg/mL
- pKd [2]: 8.64
- koff [2]: 0.0011 s⁻¹
- kon [2]: 460000 M⁻¹ s⁻¹
- EC50 [3]: 0.09 µg/mL

Substance: antibody having wild type human IgG1 domain
- pKd (human FcRn (human)): 5.90
- pKd [4]: 6.13
- pKd [5]: 4.82
- pKd [6]: 5.68
- pKd [7]: 6.02

Substance: human IgG1 antibody having L234A/L235E/G237A/A330S/P331S substitutions
- pKd (human FcRn (human)): 6.15

Substance: human IgG1 antibody having L234A/L235E/G237A/A330S/P331S substitutions (antibody; other documents disagree on this pair)
- pKd [8]: 4.66
- pKd [6]: 4.74

Substance: human IgG1 antibody having L234A/L235E/G237A/P331S substitutions
- pKd (human FcRn (human)): 6.12
- pKd [8]: 4.78
- pKd [6]: 4.77

Substance: human IgG1 antibody having L234A/L235E/P331S substitutions
- pKd (human FcRn (human)): 5.82
- pKd [9]: 5.81
- pKd [4]: 5.00
- pKd [8]: 4.10
- pKd [6]: 4.70

Substance: human IgG1 antibody having L234F/L235E/P331S substitutions
- pKd (human FcRn (human)): 6.20
- pKd [9]: 6.03
- pKd [4]: 5.06
- pKd [8]: 4.76
- pKd [6]: 4.85
- pKd [7]: 4.45

Substance: human IgG1 antibody having a N297S substitution
- pKd (human FcRn (human)): 6.15
- pKd [9]: 6.56
